# From article PMC8440770
# Molecular target: spMSP1D1 (MSP1D1 with SpyCatcher at the N-terminus and SpyTag at the C-terminus, circularized)
# Experiment: cross-linking + other: fluorescence fluctuation spectroscopy; spMSPs in PC lipid nanodiscs (cNDs); cross-linking: cNDs 0.5 µM in PBS with EGS, room temperature 1 h, SDS-PAGE; fluctuation spectroscopy: molecular brightness of FITC-labeled spMSPs and cNDs (100 pM) in reconstitution buffer by photon counting histogram
substance,measurement,value
"spMSP1D1 (MSP1D1 with SpyCatcher at the N-terminus and SpyTag at the C-terminus, circularized)",stoichiometry N,2
